{"source": "the DeepSol protein solubility set"}
{"test": "soluble on expression in E. coli; label from the status in PepcDB or PDB records"}
{"sequence": "MMNISHKDHHNDQEISDANRDWWDSDAQRYHNDHAAYLNGFHWCPEMLPEREAHLLGDISGLNVLEIGCGSAPCSRWLFDNYDAFVTGFDLSMGMLRHSPTDVPLTQADAVNLPYKDSSFDIAFSAFGAFPFIENLGPVLKDIARCLKPHGKLVFSTNHPMRWIFPDDPTEIGLCAELSYFDRSYTERDKNGKITYAEFHRTMGDWIELLNASGFIIDRLIEPEWPTNLTETWGQWSPLRGRIFPGTAIFVTHCR", "soluble on expression in E. coli": "not soluble"}
{"sequence": "MMNTKVALKQLMATHFITVDVPCPECGGAMTAWKEPTPDTPPRCPPVCMECGYRSVKKKEATTAKNLYESSLIKKAKDYFLNGSVLTDRKSLHKKISNYYPSNQESTKAKNISMEFCEKTLLGEIHHLILTGGVGVGKSHLAIGCLNEILVKSNYSKKVLFVSYRELLEQLKFAMNDEEARKAITGVAMSEIKAADVVVLDDIGAELGDFNKRDEKGNLILSRASNFDIDTLTGILESRIDKPTIITSNLKSKEIKYCYGERIVSRMATHSNGFMHRFTNTKDYRLKTALEHHHHHH", "soluble on expression in E. coli": "soluble"}
{"sequence": "MMQVLTRPPSGMPALVLNADFRPLSYYPLSLWPWQEVIKAVFLDRVDVVASYDQVIHSPSCEMRLPSVVALKQYVPQERPPAFTRFNLFLRDSFSCQYCGSPEDLTFDHVIPRSRGGRTTWENIVTACAPCNLSKGGRTPREAGMQPFHTARRPSMYELQERGRRFPPGRLHVSWLDYLYWDIELEALEHHHHHH", "soluble on expression in E. coli": "not soluble"}
{"sequence": "MMRGASKRSISSAAVLLIKKNKLPPRPKFTPEMEAQCTEKFLHGGRGPGGQKINKCNSKVQLRHEPTGIVVECQETRSREQNRKLARLKLARELAASYDTMPSREEALLQWHRQQKRSQRRRSVAKYEQREEAARVEKEEREARDREMVRELFRR", "soluble on expression in E. coli": "soluble"}
{"sequence": "MMRITGKHCLRVAILSIQRSGMIHPRNTNGSKAKNVMVADGCVIEGTVENSILSRGVKIGKNAKVKNCILLQDTVIEDGANLEYVITDKNVRVSRNRSLTGNDSFQVYVAKGQTV", "soluble on expression in E. coli": "not soluble"}
{"sequence": "MMRPTVFSSKAVISSSSLSASLAGAKIIEKGGNIFDAAIAVSSVLSVTQNNLCGLGGDAFALVRYNGRVKGYNGSGKSSRNVNRGLYFELGYSRIPERGIYSAITVPGLVDLWNSLYLEYATMRFSDLISDAIKYAETGFYITRHYEESLIASSPILGQYNWSNQFMPYGKIPAEGDLFIQKDLAGTLREIAEEGPRSFYDGYLSDIIFKAMEKTNLLIDSKDLSDHKTLAANPVKSTYMDYDVFETAPNSQGATVNYWLALLEQKIQNKIPRPVDIVESGLEAYRWRSMFIGDPERMPFNGDLLSKGAGPYYNNPRVPEDKGDTTYFSISDANGNSISMIQSNYMGFGSGIIPEGTGFVLQNRGSYFTLDDKHHNSLEPRKRTFHTLAACIIEKDGELVYSLGTMGGDIQPQVQVQIITGLINQDLMPQEAIERPRWAFPATIYEQPSVLNVEDTSLINENETRLRINPMKYSSSFGTAQVTALLNGRVAGGSDPRGDGFSIPVMAGDPLEHHHHHH", "soluble on expression in E. coli": "not soluble"}
{"sequence": "MMSGAVEPVSVIFPQSTSSGVEVLYQQFSFGRYFNQIAAGVITGLIQAHQHSGHGPLRILEVGGGTGGTTAWLLPELRNVADVRYCFTDISALFSRRAEDKFSEYDFVEYAQFDLQKPASEQGFQAGHYDLIVAANVIHATQHVGQTLHNLRPLLKPGGALLMREITRPMRLFDFVFGPLVLPLHDEQARGGELFLSTAHWQQQCLESGFERLDWLP", "soluble on expression in E. coli": "not soluble"}
{"sequence": "MMSKQPTSKRQWRDGAAPSAKKTAKPFKSKARPKDETGKTASQPYGQKASDGIKPQNVPKQRAAKAKKLVVRNPNQKIMEHARDLKERRSDLSRMEPERLQKVLAASGVGSRREMEEWITNGWITVNGKTAQLGDKVTPDDHVTVKGSIIKLKWADRLPRIILYYKQEGEIVSRDDPQGRVSIFDRLPQAASSRWVAIGRLDINTSGLLILTTSGELVQRFAHPSFEVEREYAVRVLGGLTGEQMRVLTEEGVMLEDGLAKVERIREQGGEGANKWYNVVIKEGRNREVRRIFESQGLTVSRLVRIGFGPIGLPNRLKRGQFYELNPAEVANIIKWADMLLPGERRRKKA", "soluble on expression in E. coli": "not soluble"}
{"sequence": "MMSSGPLDPSDVTLFTSYPSPIVVPLEFIEEQSKSSREELEIDESGLYIMSKALEEFMRTVMRGATQNGSRLLDYDSIAEFFANSEFRALKDFFPERVRFDEIESEILPTRATGPSNSS", "soluble on expression in E. coli": "not soluble"}
{"sequence": "MMSVPQAREARRIDLGEMGWGEVQVDFYNPLVKRREIVMILHHELKPTPMRIMLRQKLAEVLGVDIKRIYIRYIKTGYGAGLSKVRVHVYDSPERALSFEPKYIIERNGGVNPFEEAEG", "soluble on expression in E. coli": "soluble"}
{"sequence": "MMTQVTESAVRSALSRVEDPEIGKPITELGMVKSVSIDGSDVQVEVYLTIAACPMKTTIVTNTEAALKDIDGVGQVHVTTDVMSDEQRRALRVSLRGETSEPVIPFAQPGSTTRVYAVASGKGGVGKSSMTVNLAAALAKRGLSVGILDADIYGHSVPGMLGSDQRPHQVDDMIMPPQAHGVKMISIAHFTEGNAPVVWRGPMLHRAIQQFLTDVFWGDLDILLLDLPPGTGDIAITVAQLIPNAELLIVTTPQAAAAEVAERAGTISVQTNQKVAGVIENMSAMVLPDGTTMDVFGTGGGQKIADRLTAVTGEEVKVIGSVPLDPNLRIGGDVGNPIAISEPHSPTAAAINEIAEHLAHRKVSLVGKTLGLGVKLEHHHHHH", "soluble on expression in E. coli": "soluble"}
{"sequence": "MMVDTGVDHRAVSSHDGPDAGRRVFGAADPRFACVVRAFASMFPGRRFGGGALAVYLDGQPVVDVWKGWADRAGWVPWSADSAPMVFSATKGMTATVIHRLADRGLIDYEAPVAEYWPAFGANGKATLTVRDVMRHQAGLSGLRGATQQDLLDHVVMEERLAAAVPGRLLGKSAYHALTFGWLMSGLARAVTGKDMRLLFREELAEPLDTDGLHLGRPPADAPTRVAEIIMPQDIAANAVLTCAMRRLAHRFSGGFRSMYFPGAIAAVQGEAPLLDAEIPAANGVATARALARMYGAIANGGEIDGIRFLSRELVTGLTRNRRQVLPDRNLLVPLNFHLGYHGMPIGNVMPGFGHVGLGGSIGWTDPETGVAFALVHNRLLSPLEHHHHHH", "soluble on expression in E. coli": "not soluble"}
{"sequence": "MMYQVKGYFSSLKGSYYEIGKQQGEFVKQNPYLIPQFIHEENVISNNHWTESRNILNKHCPGINEEIEGFCEVLKIPSKNMMYYYQTLLKAGCSHCAVLPKKTDLEHTYVLRNYDLSPVIDDMRFCSTHVEGAYAHSGFSTQYFGRTEGINEHGLAVTFSACGQPVGNIAGLRKPMVSGLQCFAVIRLLLEKCKNVQEAKLLIEEIPIASNINLIIADPLNAAYIEIFDGHKSTITIDGEKQAFIVSTNHAVSSSIQKLNNRKLEQSTKRYHLLHEHLNRCEQVSIESLKKLVEEEYPAGLTVHNYEEWFGTLHSVLFDLHDRTMKICFGSPLLNDWYSLKVGGSMPFSEVNVNFKNKTYTDFWKEDKNELIPKRLEHHHHHH", "soluble on expression in E. coli": "soluble"}
{"sequence": "MNAEDVKGFFASRESLDMEQYLVLDYYLESVGDIETALAHFCSEQSTAQWKRVGVDEDFRLVHAAKVIDYEVIEELEQLSYPVKHSETGKIHACRVTIAHPHCNFGPKIPNLLTAVCGEGTYFTPGVPVVKLMDIHFPDTYLADFEGPKFGIEGLRDILNAHGRPIFFGVVKPNIGLSPGEFAEIAYQSWLGGLDIAKDDEMLADVTWSSIEERAAHLGKARRKAEAETGEPKIYLANITDEVDSLMEKHDVAVRNGANALLINALPVGLSAVRMLSNYTQVPLIGHFPFIASFSRMEKYGIHSKVMTKLQRLAGLDAVIMPGFGDRMMTPEEEVLENVIECTKPMGRIKPCLPVPGGSDSALTLQTVYEKVGNVDFGFVPGRGVFGHPMGPKAGAKSIRQAWEAIEQGISIETWAETHPELQAMVDQSLLKKQD", "soluble on expression in E. coli": "soluble"}
{"sequence": "MNAITPTPGIDKEAFDRAANAVRRLCGWHIFPIIEETITLDSPGDSLLVLPTKHLVEIINVTIDGTTYPLSDFRSSPDGLLVKRHGRFPRGIAMVTVTMKHGYEKPTEILGVINDMARRANESNLTQLNVGGISVGATNSATPQSSEWRIVDELRLGPLP", "soluble on expression in E. coli": "not soluble"}
{"sequence": "MNALARRAAGLLLSTICLPLTALAADPQPTHEFTLDNGLKVVVREDHRAPVVVSQIWYKVGSSYETPGQTGLSHALEHMMFKGSSKTGPGESSLILRDLGAEENAFTSDDYTAYYQVLARDRLSVALELEADRMATLKLPADEFGREIEVIKEERRLRTDDKPMGKAFERFKAMAYPASGYHTPTIGWMADLERMKVEELRHWYESWYTPNNATLVVVGDVQPDEVKALAERFFGPIPRRDVPPSKKPLELAEPGERKITLHVKTQLPSLIYGFNVPSVATAEDPRSANALRLIAALLDGGYSARIPTRLERGEELVSGASSRYDAFARGDSLFMISATPNMQKKKTLADVEAGIWRLLDDLKTKAPSAEELERVRAQVIAGVVYERDSITSQATMIGELETVGLSWKLMDKELEDLQSVTPQDIQKAANTYFTRERLSVAHVLPEEKAK", "soluble on expression in E. coli": "not soluble"}
{"sequence": "MNALLVMTGLAAAASGRIGAACSALLGGGAVRGRSAGASGDEAQAQDADSSPEADRLEDVSPSGAFAGVIAALEVQAPVRDVPPPTDDLANEGEDIARSRVAATAADAVTSGGAARSPRDALGGLAFGQSPMIEAGKALYVSPVRDDERLRNGERFRDGERLRDGADGARAGMRDAASAAGAASTSRVGQPGAGAPRDQQALSQSPGQQAADKPPAGAPGPQEGTIGAPVDMPRAAARAHSPQSAPVRLGAELMSVLGERIDVQLQRGVERAVIRLDPQSMGTLHIAIRHEGGSVQIQMIASHEEVARQLQTMSEALRQDLSSRHHGDVTVVVRHGQGMEQGAGHGEGGAHREEKRPGAALAEADVPDGDDGFRLDGRDVI", "soluble on expression in E. coli": "not soluble"}
{"sequence": "MNANVYQHFRKDEHPFIDTVGDWLEQVEMQYAPYLTDFLDPRQAYILETLIRQNSDLSFTFYGGYEQAERKRCLIYPAYYIPEETDFGVVLFEIIYPSKFATLSHGKILGTLMNVGVRREAFGDIISDGDKWQVFIAQEVAGFVVNQVDKIGKITVRLEERDYTQILIPKDGWQEERTTMSSLRLDSVISAVFNISRQRSKQLIESGKVKVNWTETTRPDFALDLLDIVSIRGFGRLQIQELEGKTKKEKFRVLLGVLRK", "soluble on expression in E. coli": "not soluble"}
{"sequence": "MNAPIEPHRFTLEPFEAHRFANLCGQLDEHLRLIEQRLDIEIRNRGNQFELIGETTQTRSAENLLRRLYRETKGTELTPDMVHLFLQESGVDGLDNHPAAEVGVSLRTKKGMIRPRGLNQQRYVKEVLSNDINFGIGPAGTGKTYLAVACAVDALEREQIRRILLVRPAVEAGEKLGFLPGDLAQKIDPYLRPLYDALYEMLGFEYVAKLIEKQVIEVAPLAYMRGRTLNNSFIILDESQNTTVEQMKMFLTRIGFGSTAVITGDITQVDLPKGTRSGLTHVIDVLKDVPGISFTHFKPKDVVRHPLVQRIVEAYERFDDQLSDGPSGNNGYSRDKNRNA", "soluble on expression in E. coli": "not soluble"}
{"sequence": "MNATIQTIPELLIQTRGNQTEVARMLSCARGTVLKYNRDSKGERHVIVNGVLMVKQGKRGRP", "soluble on expression in E. coli": "not soluble"}
{"sequence": "MNAYQKTIGRAVTLSGVGIHGGAPASARLLPADADTGILFQRSDIKDSAPVCAHVSQIGATDLCTSLGAREARIDTVEHLMAAISALGIDNLVVEIEGPEVPILDGTSARFIEAVDSVGVVTQDAKRRFIRILKTVRVEAGNSWGEFRPYDGTRFEVEIDFECPLIGRQKFAHDVDEETFRKELSTARTFGFMKDVERLWAAGLALGASLDNSLVIGDDNSIVNADGLRFKDEFVRHKTLDAVGDLALAGLPFIGCFSSYRGGHRLNSEAVKALLSDETAFEIIEALEHHHHHH", "soluble on expression in E. coli": "soluble"}
